This sample holds only a part of the variants without activity.
B1: TPR 5TU (parent)
chain: GGAUCUUCUCGAUCUAACAAAAAAGACAAAUCUGCCACAAAGCUUGAGAGCAUCUUCGGAUGCAGAGGCGGCAGCCUUCGGUGGCGCGAUAGCGCCAACGUUCUCAACUAUGACACGCAAAACGCGUGCUCCGUUGAAUGGAGUUUAUCAUG

Variants of: B1
Assay: polymerase ribozyme fitness, log enrichment relative to wild type (log ratio); higher = more active; in vitro selection for triplet polymerase activity
Method in brief: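 Input and output libraries were sequenced on Illumina after a single in vitro selection round, run in triplicate on PCR-built, transcribed mutant libraries of each subunit of a heterodimeric triplet polymerase ribozyme. Selection annealed libraries to a biotinylated primer, the partner subunit and triplets, incubated them frozen at −7 °C, then gel-excised extended constructs for streptavidin-bead capture and RT-PCR. Genotypes with ≥10 input reads and ≥1 read per output were kept. Fitness is the logarithm, taken in base 2, of genotype enrichment divided by wild-type enrichment, using inverse-variance-weighted replicate averages.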

Variant | polymerase ribozyme fitness (log ratio)
G50C A64C U82G C87G A106U A122C | ≤ -4.2
G50A C57U G74U C75G C87A A97C A150G | ≤ -4.2
G50A C75U C76U C114G G152U | -4.02
G50U G80A G92A A115U | ≤ -4.2
G50A G84U | -1.58
G50A G84A | -2.43
G50C C93A | ≤ -4.2
G50C C93U | -4.15
C51A G86U C108G A137C | ≤ -4.2
G50C A52C U56C C96U A107U | ≤ -4.2
G50A A150U | -1.41
G50C U56A A73G C125A | -4.1
G50A G65A A89U U101A A106C | -4.2
G50U U102A A142U | -2.57
G50C C93U U104G G136U G141A | ≤ -4.2
G50A A142C | -3.12
C51A G140C | -4.19
C51A G140U | -4.11
G50C G59C G83A | -3.91
G50A G71C U82G C85G | ≤ -4.2
G50A U55A C87G C103U C116G | ≤ -4.2

Variant | polymerase ribozyme fitness (log ratio)
G50C A73G G84A | -4.1
G50C C54U C85U C125U | -4.17
G50U G126A G141C | -4.02
G50C A52G C57U C93A | ≤ -4.2
G50C C54U | -2.6
G50A C76A G92A U101G G128U U130G | ≤ -4.2
G50A G94C C95G U144C | ≤ -4.2
G50C C51U G92U | -2.09
G50A U102A | -3.08
G50A A106G C118U | -1.6
G50U C87U A89G | -3.95
G50C C57U G59C C99G | ≤ -4.2
G50A C95U C116U | -1.99
C51A C95U C118U U135A | -2.41
G50C G83U | -3.77
C51A A137C | ≤ -4.2
G50U U102G | -2.92
G50U U102A | -0.888
G50A C93U | -3.07
G50U G70A G136U | ≤ -4.2
G50U C96G | -0.544

Variant | polymerase ribozyme fitness (log ratio)
G50U G81C U134A | -2.19
G50U A60U | -0.536
G50A C125U | -1.35
G50A C85G | -3.34
G50A A91U C99U C103G C108U A137C G141C | ≤ -4.2
G50U G83A | -0.347
G50U G83C | -0.813
G50C A52C C105A C125A A142C U146A | ≤ -4.2
G50A A110G | -3.88
G50C C51A | -0.896
G50C C57A A66C C85G | ≤ -4.2
G50C C118G G140A | ≤ -4.2
G50U G83U C85G | -4.13
G50U A120U C125G | -0.502
C51A G58A G74C C96U A107C | ≤ -4.2
G50A C93U G152A | -3.09
G50C G81C C93G C95U A110C | ≤ -4.2
G50C G58U | -1.88
G50U C75G G86U C87A A89U | ≤ -4.2
G50U C57U A73U G86U G126U | ≤ -4.2
G50A C69U A121U A137C | ≤ -4.2

Variant | polymerase ribozyme fitness (log ratio)
C51A A66G G71A G80C G94C A113G | ≤ -4.2
G50U U78C U139G | -3.06
G50A G92A A106G | ≤ -4.2
G50U C95G | -0.905
G50A C96U G141U | -0.125
G50C G84A U104C A106C | ≤ -4.2
G50U C93U | -2.05
G50C U53A C57G A73G C93A C95A U101G A107G A138C U144C | ≤ -4.2
C51A C85A G141A | -1.93
C51A G86A G126A G128U G141A | ≤ -4.2
G50A G86A | -3.01
G50A G86U | -3.78
C51A U55A A60C G74A G81A U90G C95A | ≤ -4.2
G50U C96U C99A C103G G124C C129A U144G | ≤ -4.2
G50C A64C G80A A120C G128U | ≤ -4.2
G50C C125U | -3.89
G50C C125A | -2.76
C51A C118G | -3.24
G50U G94A | -0.00242
G50C C96U U134A | ≤ -4.2
G50U C69U C99U | -3.41

— the RNAGym collection of RNA variant scans (doi:10.1073/pnas.2313332121)
